Data from patent US12077763B2, “RNA-based control of powdery mildew” (Greenlight Biosciences, Inc., priority 2021, dated 2024).

Legend:
[1] = system: E. necator; assay: Leaf disc assay, dry inoculum (settling tower), decrease in disease severity / hyphal growth (Example 2); conditions: decrease in disease severity (hyphal growth) relative to untreated control, value ± SE; for % decrease =/− SE TP1: time point 1 (untreated control hyphal growth ≥50%); for % decrease =/− SE TP2: time point 2
[2] = system: GS1885, GS3336, GS1875, GS1879 transcripts; assay: Gene specific qRT-PCR of GS1885, GS3336, GS1875, GS1879 transcripts in leaf discs (Example 3); format: in vivo, E. necator; conditions: six-days post inoculation, FIG. 4
Protocol: FIG. 4. Gene specific qRT-PCR analysis of GS1885, GS3336, GS1875, GS1879 transcripts at 6-dpi in leaf discs. The 2-ΔΔCT method was used to analyze the relative changes in gene expression. Gene expression was normalized to the untreated control. GS145 (a non-target dsRNA sequence) was also included as control. Asterisks denote significant differences compared to untreated control (UTC). Statistical comparisons between treatments were performed with ANOVA, followed by Welch's analysis.
qRT-PCR was performed to validate the effect of exogenous dsRNA on the expression of selected targeted genes for which activity of dsRNA had been shown by leaf assay (as described in Example 2). Samples were treated with dsRNA, inoculated after 24 hours and six leaf discs per treatment were collected at six-days post inoculation (dpi) for further analysis.

Row | Molecule | % decrease =/− SE TP1 [1] [%] | % decrease =/− SE TP2 [1] [%] | gene silencing in E. necator by sprayed dsRNA / gene expression levels vs untreated control [2]
1 | GS2679 (nucleic acid) sense: CCGCCAUACUGGGGGAUUAGAACCUUGUCGCCAACCUUGACAUUACAAGACACUCUGUUUCCAUCUUUGCCAACUGCACCAGGUCCUACAGCUAUAACGUGGGCUUCAUUGAGUUCCUUGACACUUUUUUCGGGAAGAAAAAUGCCACUCGCAGUCUUUGCUUCUGCCUUCACUCGUUGUACAAGAACCCGGUCAAGUAAAGGAGCAAGGGACUUGAUUGAUUUGAGUGUUGAAGCCAUGUUAGAGGAUAACGGACAGUGAAUUAUAAAGACUGUGCAAUAAAAUUGGUUUAAGAGAAAAGAUCUUUGAAGUCGCGUUACGUUAAAGUCGCUAUCUGUU antisense: AACAGAUAGCGACUUUAACGUAACGCGACUUCAAAGAUCUUUUCUCUUAAACCAAUUUUAUUGCACAGUCUUUAUAAUUCACUGUCCGUUAUCCUCUAACAUGGCUUCAACACUCAAAUCAAUCAAGUCCCUUGCUCCUUUACUUGACCGGGUUCUUGUACAACGAGUGAAGGCAGAAGCAAAGACUGCGAGUGGCAUUUUUCUUCCCGAAAAAAGUGUCAAGGAACUCAAUGAAGCCCACGUUAUAGCUGUAGGACCUGGUGCAGUUGGCAAAGAUGGAAACAGAGUGUCUUGUAAUGUCAAGGUUGGCGACAAGGUUCUAAUCCCCCAGUAUGGCGG | 25 ± 3 | 24 ± 5 | –
2 | GS2666 (nucleic acid) sense: UUCGGCAUAUCAACGUAAAAAAAAAAUAAAUCGACACAAAACAGCUCAAUACCGUAGUUUAUCACCAUGCUUACAAUUACGUAAACGGAGGUCUGCAAAGAGCCUUAAGUCUUUGGAAAUAUCAUGCAGUAGUGGUAUUGAAAAAGGAACCACUAGCUUCGUAAACUAUACCCCAGAAGAUUCCCAGAAGAUUUUAAAUGGAGUUGCUCCGUCUGGGAGUAACAAGACCAAAGCUCGAAGGGAGAAAGAGGCCUUGGAAAAACGCCAAAAGUUAU antisense: AUAACUUUUGGCGUUUUUCCAAGGCCUCUUUCUCCCUUCGAGCUUUGGUCUUGUUACUCCCAGACGGAGCAACUCCAUUUAAAAUCUUCUGGGAAUCUUCUGGGGUAUAGUUUACGAAGCUAGUGGUUCCUUUUUCAAUACCACUACUGCAUGAUAUUUCCAAAGACUUAAGGCUCUUUGCAGACCUCCGUUUACGUAAUUGUAAGCAUGGUGAUAAACUACGGUAUUGAGCUGUUUUGUGUCGAUUUAUUUUUUUUUUACGUUGAUAUGCCGAA | 14 ± 7 | – | –
3 | GS2668 (nucleic acid) sense: UUCCUAGUCAAACGUGCAUCUAGUGGAGGUGUACAAUUUUCUCGUGAUCCCCUAAACUUAACAAAUGUGCAUUCUCGCAAAUAUGCCGGAUUUGUUAACGAUAAGGCUGUCGGAAUUCUUCCCAUUGAAGGUGGUAAAGGAGGUAUUACUUUGAUCACCAAAAAAACUAAAUUUACCCAAAAACCUUCUAGCGCCAUAUACACAACAGUUUUUGGUGGUAAUAAAACUUCAAGACGGACAUAUAAGGGGGUUGUCAAUACUGUUGUCAAAUCAAGAUAUCGAUCUGAUCUUCGUGCUGAAGCUGUUGCUCGUGCGUCUGCUAUUCGGUACUCGCAAAAACCAAAGGGUGAUCUUCCUAAGAAGAAAUUGCGUGGAUCAAAAGCUAAAAAGG antisense: CCUUUUUAGCUUUUGAUCCACGCAAUUUCUUCUUAGGAAGAUCACCCUUUGGUUUUUGCGAGUACCGAAUAGCAGACGCACGAGCAACAGCUUCAGCACGAAGAUCAGAUCGAUAUCUUGAUUUGACAACAGUAUUGACAACCCCCUUAUAUGUCCGUCUUGAAGUUUUAUUACCACCAAAAACUGUUGUGUAUAUGGCGCUAGAAGGUUUUUGGGUAAAUUUAGUUUUUUUGGUGAUCAAAGUAAUACCUCCUUUACCACCUUCAAUGGGAAGAAUUCCGACAGCCUUAUCGUUAACAAAUCCGGCAUAUUUGCGAGAAUGCACAUUUGUUAAGUUUAGGGGAUCACGAGAAAAUUGUACACCUCCACUAGAUGCACGUUUGACUAGGAA | 46 ± 3 | 38 ± 4 | –
4 | GS2674 (nucleic acid) sense: UUGAGAAAUUAUUUUCUCUUAUAGCGAAUUUGAUUGAGUAUUUUAUGUGAUAUUCACGUUGUUGGACCCUUAUAGAUCUGGGAUUUAGGGUCUUAGAAGACUCGUCUUAAAGCUUGCCCCAACGUAUGAAGUAUUAAAUACGUUACUUUUGAUAUGAAUAUAUUUUUUAUAUACACGAAUUAAUUUAAUCGAAGAGACCAAAGCCCAUAUCUUCAUCAGACUCUUCUUCUUUUUCUUCUU antisense: AAGAAGAAAAAGAAGAAGAGUCUGAUGAAGAUAUGGGCUUUGGUCUCUUCGAUUAAAUUAAUUCGUGUAUAUAAAAAAUAUAUUCAUAUCAAAAGUAACGUAUUUAAUACUUCAUACGUUGGGGCAAGCUUUAAGACGAGUCUUCUAAGACCCUAAAUCCCAGAUCUAUAAGGGUCCAACAACGUGAAUAUCACAUAAAAUACUCAAUCAAAUUCGCUAUAAGAGAAAAUAAUUUCUCAA | 17 ± 4 | 5 ± 6 | –
5 | ES48: dsRNA trigger SEQ ID NO 111; gene target Hypotethical effector (nucleic acid) DNA: AGTAGCAGCGGACATCGCCGACGGCCCTACACTGTCAGGGCTACCTGGGGTTGCAGATTTCGACTTGTCTTCAGCGTCCTCCCCAAGTCTCGAGAAAAGACTTTGTTTTAGACGAGGATGCAATAAAAAATCTAAACACGCATCAGGCTTCCAATGTAAGAAGAAACATTTCAGTCTGGCGGCGGTAGAAAAAGCAAAAGCCGTAGCCTGCGCAAAGATCAAAGAAAACAAGCAGCGCAATGCCTTTCCTGCTCTTTACACCGCAACCGATTTCGAAACTCCCGGGCCTTATCTAGAATGGCCAATCAAGCGCAATGGAAGATTTTGGAATAATTTGAGAAGAGGCCGTTACCGCATCATCCTAACCGAAAACTGCAAAGTTGTCGGTGCTGTGATCCGGAAAAGCAATGGTTCATACCGCACATGCAAGAAACTGAGCGAAAAAGATGAAGATGAAGTTGATGATGATGATGAAAAAGAA | 15 ± 6 | 1 ± 3 | –
6 | GS1885: dsRNA trigger SEQ ID NO 213; gene target ribosomal processing RNA binding nucleolar protein (nucleic acid) TACGGATCGATAGACGGGTGAGTGAAAGATGAAGTGCAGGATTTTTCTCTATAAGTTTCTTACGTTGTAGCGCCGAAGCTTCTCTAAGTTTAATCTCTGATGGAGATAAAACGTTATATATAGGCGTACCAACAGCAATTGTCCCCTCTTTAAGTAGATATAACTTTCGCTTATCTTTGTCTCGGTCAGTGCGGAAGTTTGTCCCAGCTTCTGTAAGTTTTACAGCTTTTTCTCGATTAACTGCTCTTGACACTTGAAGTACGCGACCTTCTATTGTGTATAAGCCATTCTTATCAGCAGTTTCATCCTCTAAAATAGAGTTTTTAGCTTTAACAGCGTTTGCACCACTTTTGAAGGTACGAGGTGCACCATGGTAACAAGAGTCCGCATCTTCTTGTCTATAGAAGCAAACAAAGCCAGTGCCTTTAGGTCGACCAGTATTATTGTCTATGACCA | 67 ± 4 | 58 ± 5 | Induced Gene Silencing
7 | GS2660 (nucleic acid) sense: GUCGUAAUGAUCUUGGCCAAUAAUUCGAGGGUCAAGCAUUCGAGAUUUAGACUCAAGGGGAUCUACCGCUGGAUAGAUACCUAAUUCUGAAAUACCACGUGAUAAUACAGUAGUUGCAUCUAAAUGAGCAAACGUUGUUGCGGGUGCUGGAUCCGUCAGAUCAUCAGCUGGCACGUAAACAGCUUGCACUGAAGUGAUUGAGCCUUUGGUAGUUGUUGUAAUUCGCUCUUGCAUAAGACCCAUAUCUACUGCAAGUGUAGGUUGAUAACCAACUGCAGAGGGAAUACGUCCGAGAAGAGCAGAGACUUCGGAGCCGGCCUGAGUGAAACGAAAAAUAUUAUCAAUGAAAAGUAAUACAUCUUGUCCUUCUUCAUCACGGAAAUACUCAGCAAUAGUUA antisense: UAACUAUUGCUGAGUAUUUCCGUGAUGAAGAAGGACAAGAUGUAUUACUUUUCAUUGAUAAUAUUUUUCGUUUCACUCAGGCCGGCUCCGAAGUCUCUGCUCUUCUCGGACGUAUUCCCUCUGCAGUUGGUUAUCAACCUACACUUGCAGUAGAUAUGGGUCUUAUGCAAGAGCGAAUUACAACAACUACCAAAGGCUCAAUCACUUCAGUGCAAGCUGUUUACGUGCCAGCUGAUGAUCUGACGGAUCCAGCACCCGCAACAACGUUUGCUCAUUUAGAUGCAACUACUGUAUUAUCACGUGGUAUUUCAGAAUUAGGUAUCUAUCCAGCGGUAGAUCCCCUUGAGUCUAAAUCUCGAAUGCUUGACCCUCGAAUUAUUGGCCAAGAUCAUUACGAC | – | 24 ± 8 | –
8 | GS3336: sprayed dsRNA for which activity had been shown by leaf assay; presumably listed in Table 1B (nucleic acid) sense: AAUGAUGUAAGCUCCAUGGGAAUUCAUAACCUGAGUGAGCAUCAAUAGCUUGGAAUAGUCGACAGAUAAUCCAACAAUACAUCGUAACUAAGUGAAGAUUGCCAGUUAUCAGACACCAUACAGUUGGCAUUAAGACUGUUCCUGCGCCAAGAACCAUUGUUUCUAUUGGUGAAGCAUAUUCAGCUGCUAGUCCGAAGGGUGCAGAGUAAUGAUGAUGUAUUUUAUGAAUAUGUUUGUAGAAAGGACCCCAAUGAAAUAAUCGAUGCAUCCAAUAAUGCCACGUAUCUUCCAACACGAAAAAGAAAGCAAUCUGAAGACACAUAGUUUUUAAUGAUGGAAAUGGGACACCAACAUCCAUACCACAAGCCUUUGUCAAUGGAUGAAAAAGCCAAAUUUGA antisense: UCAAAUUUGGCUUUUUCAUCCAUUGACAAAGGCUUGUGGUAUGGAUGUUGGUGUCCCAUUUCCAUCAUUAAAAACUAUGUGUCUUCAGAUUGCUUUCUUUUUCGUGUUGGAAGAUACGUGGCAUUAUUGGAUGCAUCGAUUAUUUCAUUGGGGUCCUUUCUACAAACAUAUUCAUAAAAUACAUCAUCAUUACUCUGCACCCUUCGGACUAGCAGCUGAAUAUGCUUCACCAAUAGAAACAAUGGUUCUUGGCGCAGGAACAGUCUUAAUGCCAACUGUAUGGUGUCUGAUAACUGGCAAUCUUCACUUAGUUACGAUGUAUUGUUGGAUUAUCUGUCGACUAUUCCAAGCUAUUGAUGCUCACUCAGGUUAUGAAUUCCCAUGGAGCUUACAUCAUU | 72 ± 2 | 57 ± 4 | Induced Gene Silencing
